For assay [1], the target named is T1, full length recombinant human 2N4R tau (amino acids 1-441) (human, UniProt P10636 1-758).
T1 construct: Bought (rPeptide); recombinant, non-phosphorylated; also called recombinant tau
The assay can be described thus: SPR Biacore SCK, IgG on Protein A, tau analyte. The protocol: 23.5 Assessment of antibody binding to tau (Biacore SCK analysis): Binding of anti-tau hIgG1 to full length recombinant 2N4R tau (Rpeptide; SEQ ID NO: 2) was assessed using the Biacore T200 (GE Healthcare, Chicago, Ill., USA) running Biacore T200 Evaluation Software V2.0.1. hIgG1 were immobilised on a Protein A capture sensor chip in running buffer (HBS-EP+ buffer containing 1 mg/mL BSA) at 25° C. captured to ˜50 RU at 10 μL/min. For single-cycle kinetics experiments, recombinant 2N4R tau was flowed at concentrations ranging from 5 nM to 40 nM (2-fold dilutions) with an association time of 150 s and a dissociation time of 200 s. Curves were compared to a reference cell that was mock immobilized (no antibody present).
Data were analysed using Langmuir (1:1) binding analysis, describing a 1:1 interaction at the surface: […]

The target in assay [2] is full length pHrodo-labelled monomeric (P301S) 2N4R tau (human, UniProt P10636 1-758, labelled with pHrodo Red Maleimide). The assay is described as follows: cell-based or functional assay.
full length pHrodo-labelled monomeric (P301S) 2N4R tau, sequence (P10636 other isoform, or with tags, fused parts or gaps P301S P301S): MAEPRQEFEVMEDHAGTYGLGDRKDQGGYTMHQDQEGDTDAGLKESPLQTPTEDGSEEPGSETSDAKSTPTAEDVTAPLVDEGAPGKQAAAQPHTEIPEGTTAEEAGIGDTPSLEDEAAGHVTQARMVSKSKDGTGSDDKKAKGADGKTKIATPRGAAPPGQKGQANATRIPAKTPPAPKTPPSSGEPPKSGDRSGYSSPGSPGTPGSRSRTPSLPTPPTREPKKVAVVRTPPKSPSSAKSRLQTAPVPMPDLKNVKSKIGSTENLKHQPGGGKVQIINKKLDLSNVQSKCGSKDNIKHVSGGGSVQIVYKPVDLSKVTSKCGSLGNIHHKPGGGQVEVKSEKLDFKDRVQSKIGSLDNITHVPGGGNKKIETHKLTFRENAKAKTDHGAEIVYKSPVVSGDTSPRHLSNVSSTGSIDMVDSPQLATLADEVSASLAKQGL
Assay [3] concerns the target full length pHrodo-labelled aggregated (P301S) 2N4R tau (human, UniProt P10636 1-758, labelled with pHrodo Red Maleimide). The assay can be described thus: cell-based or functional assay.
In assay [4] the target is T2, Bovine serum albumin (bovine, UniProt P02769 25-607).
T2 construct: Negative control antigen in ELISA; also called BSA
T2 sequence (P02769 25-607 limits assumed): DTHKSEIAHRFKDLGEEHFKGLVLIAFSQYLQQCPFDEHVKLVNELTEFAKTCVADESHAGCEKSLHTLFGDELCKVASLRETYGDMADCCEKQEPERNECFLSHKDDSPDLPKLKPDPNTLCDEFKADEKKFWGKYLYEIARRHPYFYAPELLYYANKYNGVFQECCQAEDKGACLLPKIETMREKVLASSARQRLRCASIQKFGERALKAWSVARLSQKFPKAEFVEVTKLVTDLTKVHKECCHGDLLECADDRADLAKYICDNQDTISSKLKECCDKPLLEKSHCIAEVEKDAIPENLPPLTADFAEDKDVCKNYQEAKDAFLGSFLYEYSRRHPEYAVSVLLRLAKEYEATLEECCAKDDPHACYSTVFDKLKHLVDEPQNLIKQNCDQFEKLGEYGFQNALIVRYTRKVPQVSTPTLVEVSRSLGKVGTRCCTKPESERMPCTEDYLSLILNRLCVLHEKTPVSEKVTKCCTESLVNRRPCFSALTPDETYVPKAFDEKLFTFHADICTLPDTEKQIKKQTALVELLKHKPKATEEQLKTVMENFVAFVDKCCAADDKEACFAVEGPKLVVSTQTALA
The assay can be described thus: ELISA on 1% BSA, HEK supernatant, anti-human IgG-HRP, n=1. The procedure: (§1) Antigen was removed from wells and the plates were then blocked for 1 hour at RT with 5% dried milk in 1×TBS. Blocking solution was removed, HEK293 cell supernatant (1:100 in 1% BSA/1×TBS) was added to relevant wells, and plates were incubated for 1 hour at RT with gentle shaking. Plates were then washed four times with TBS/0.1% Tween (TBST). Goat-anti-human IgG-HRP antibody (ThermoFisher Scientific, Waltham, Mass. USA), diluted 1:2000 in 5% milk/TBS, was added to each well and plates were incubated for 1 hour at RT with gentle shaking before being washed four times with TBST. 3,3′,5,5′-tetramethylbenzidine (TMB) ELISA solution was added to each well and plates were incubated for 15 mins at RT. An equal volume of 1 M sulfuric acid was added to each well and OD was measured at 450 nm.
On the technique in general: ELISA stands for enzyme-linked immunosorbent assay.

In assay [5] the target is T1, full length recombinant human 2N4R tau …. The assay can be described thus: SPR Biacore MCK, purified IgG on Protein A, tau analyte. The procedure:
Biacore multi-cycle kinetics (MCK) analyses for antibody binding to recombinant (non-phosphorylated) 2N4R tau are summarised in FIG. 23 and Table 8. […] Slight variations in RMAX are considered likely to be due to differences in ligand capture and not reflective of significant variation in antibody binding characteristics.
24.2 Assessment of antibody binding to tau (Biacore MCK analysis): Binding of anti-tau hIgG1 to full length recombinant 2N4R tau (Rpeptide; SEQ ID NO: 2) was assessed using the Biacore T200 (GE Healthcare, Chicago, Ill., USA) running Biacore T200 Evaluation Software V2.0.1. hIgG1 were immobilised on a Protein A capture sensor chip in running buffer (HBS-EP+ buffer containing 1 mg/mL BSA) at 25° C. captured to ˜50 RU at 10 μL/min. […] Curves were compared to a reference cell that was mock immobilized (no antibody present).

Assay [6] shares this target. The assay can be described thus: ELISA, HEK293F supernatant on coated tau. The protocol:
as §1, with “removed. HEK293F” for “removed, HEK293”, “(10 μg/mL, to 0.0001 μg/mL” for “(1:100”, “Anti-rabbit” for “Goat-anti-human”, “(Sigma. St Louis, Mo.,” for “(ThermoFisher Scientific, Waltham, Mass.”, “1:5000” for “1:2000”

The target in assay [7] is T2, Bovine serum albumin. The assay is described as follows: ELISA on 1% BSA, HEK293F supernatant, anti-rabbit IgG-HRP, n=1. The procedure:
FIG. 9. A panel of anti-tau IgG bind to linear immunogen peptide and full length recombinant 2N4R tau in ELISA format. […] Binding of anti-tau IgG was detected using an HRP-conjugated anti-rabbit secondary antibody and data shown are from a representative experiment (n=1).
as §1, with “removed. HEK293F” for “removed, HEK293”, “(10 μg/mL, to 0.0001 μg/mL” for “(1:100”, “Anti-rabbit” for “Goat-anti-human”, “(Sigma. St Louis, Mo.,” for “(ThermoFisher Scientific, Waltham, Mass.”, “1:5000” for “1:2000”

T1 sequence (P10636 other isoform, or with tags, fused parts or gaps limits assumed): as the sequence (P10636 other isoform, or with tags, fused parts or gaps P301S P301S) above, with S301P counted along it
full length pHrodo-labelled aggregated (P301S) 2N4R tau, sequence (P10636 other isoform, or with tags, fused parts or gaps P301S P301S): as the sequence (P10636 other isoform, or with tags, fused parts or gaps P301S P301S) above

B1: Clone 28 (VH4Vκ4), humanised variant of clone #28, human IgG1 (antibody, V domains shown)
VH: QVQLQESGPGLVKPSETLSLTCTVSGFSLNNYDMSWVRQAPGKGLEWIGTVSTTYRRYYASWAKGRFTISKDTSSTTVDLQMTSLTAEDTATYFCAASGIWGRGTLVTVSS
VL: DIQMTQSPSTLSASVGDRVTITCQSSQRVYSNYLAWYQQKPGQPPKRLIFLASTLESGVPSRFSGSGSGTEFTLTISSLQPDDFATYYCAGTYTGSIWAFGGGTKVEIK
notes: also called VH4VK4; VH4Vk4
In the case of B1, in assay [1], the Kd (commonly a measure of binding affinity in units of concentration) amounted to 49 nM; the “Relative KD” value came out at 1.08 fold vs VH0VK0; the koff – broadly, the rate constant with which the complex falls apart – was found to be 0.00234 s⁻¹; the kon (in general, the rate constant with which the complex forms) worked out at 47700 M⁻¹ s⁻¹. Also, in assay [2], the “inhibition of uptake of monomeric tau into human iPSC-derived astrocytes” value was determined as 42 % inhibition and the “inhibition of uptake of monomeric tau into human iPSC-derived neurons” value is 61.5 % inhibition. In assay [3], the “increase of uptake of aggregated tau into human iPSC-derived microglia” value (“increase” below) amounted to 246 % increase, the “inhibition of uptake of aggregated tau into human iPSC-derived astrocytes” value worked out at 29.1 % inhibition and the “inhibition of uptake of aggregated tau into human iPSC-derived neurons” value was 58.7 % inhibition. In the assay with Bovine serum albumin [4], the binding result is reported as “no binding (tested: supernatant 1:100)”. Moreover, in assay [5], the Kd was 26.9 nM, the “Relative KD” value turned out to be 1.08 fold vs VH0VK0, the koff amounted to 0.00186 s⁻¹ and the kon was 69200 M⁻¹ s⁻¹.

B2: Clone 32 (VH5Vκ4), humanised variant of clone #28, human IgG1 (antibody, V domains shown)
VH: QVQLQESGPGLVKPSETLSLTCTVSGFSLNNYDMSWVRQAPGKGLEWIGTVSTTYRRYYASWAKGRFTISRDNSKNTLDLQMTSLTAEDTATYFCAASGIWGRGTLVTVSS
VL: DIQMTQSPSTLSASVGDRVTITCQSSQRVYSNYLAWYQQKPGQPPKRLIFLASTLESGVPSRFSGSGSGTEFTLTISSLQPDDFATYYCAGTYTGSIWAFGGGTKVEIK
notes: also called VH5VK4; VH5Vk4
Take B2: in assay [1], the Kd is 67.3 nM, the “Relative KD” value worked out at 1.49 fold vs VH0VK0, the koff is 0.00239 s⁻¹ and the kon was found to be 35500 M⁻¹ s⁻¹. Also, in assay [2], the “inhibition of uptake of monomeric tau into human iPSC-derived astrocytes” value was found to be 45.7 % inhibition and the “inhibition of uptake of monomeric tau into human iPSC-derived neurons” value stood at 64.2 % inhibition. In addition, in assay [3], the “increase” value was found to be 243 % increase, the “inhibition of uptake of aggregated tau into human iPSC-derived astrocytes” value is 45.7 % inhibition and the “inhibition of uptake of aggregated tau into human iPSC-derived neurons” value was 41.3 % inhibition. The binding result with Bovine serum albumin [4] was “no binding (tested: supernatant 1:100)”. Moreover, in assay [5], the Kd turned out to be 33.6 nM, the “Relative KD” value amounted to 1.35 fold vs VH0VK0, the koff worked out at 0.00239 s⁻¹ and the kon was found to be 71100 M⁻¹ s⁻¹.

B3: Clone 24 (VH3Vκ4), humanised variant of clone #28, human IgG1 (antibody, V domains shown)
VH: QVQLQESGPGLVKPSETLSLTCTVSGFSLNNYDMSWVRQAPGKGLEWIGTVSTTYRRYYASWAKGRFTISKTSSTTVDLQMTSLTAEDTATYFCAASGIWGRGTLVTVSS
VL: DIQMTQSPSTLSASVGDRVTITCQSSQRVYSNYLAWYQQKPGQPPKRLIFLASTLESGVPSRFSGSGSGTEFTLTISSLQPDDFATYYCAGTYTGSIWAFGGGTKVEIK
notes: also called VH3VK4; VH3Vk4
With B3, in assay [1], the dissociation constant Kd is 21.2 nM, the “Relative KD” value turned out to be 0.47 fold vs VH0VK0, the koff is 0.00146 s⁻¹ and the kon stood at 68900 M⁻¹ s⁻¹. Further, in assay [2], the “inhibition of uptake of monomeric tau into human iPSC-derived astrocytes” value amounted to 31.5 % inhibition and the “inhibition of uptake of monomeric tau into human iPSC-derived neurons” value turned out to be 63.3 % inhibition. In addition, in assay [3], the “increase” value came to 267 % increase, the “inhibition of uptake of aggregated tau into human iPSC-derived astrocytes” value is 30.8 % inhibition and the “inhibition of uptake of aggregated tau into human iPSC-derived neurons” value is 61.4 % inhibition. Further, in the assay with Bovine serum albumin [4], the binding result is on record as “no binding (tested: supernatant 1:100)”. Further, in assay [5], the Kd stood at 17.1 nM, the “Relative KD” value turned out to be 0.69 fold vs VH0VK0, the koff was determined as 0.0013 s⁻¹ and the kon was determined as 76100 M⁻¹ s⁻¹.

B4: Clone 6 rabbit monoclonal IgG (antibody, V domains shown)
VH: QSVEESGGRLVTPGTPLTLTCTVSGFSLSSYDMSWVRQAPGKGLEWIGTIGRYYNTYYATWAKGRFTISKTSSTTVDLKMTSLTTEDTATYFCASSGIWGPGTLVTVSL
VL: AQVLTQTASPVSAAVGGTVTINCQSSQTVYNNNYLSWYQQKPGQPPKRLIYLASTLESGVPSRFSGSGSGTQFTLTISGVVCDDAATYYCAGTYSGSIWAFGGGTEVVVKG
notes: Rabbit IgG expressed in HEK293F; also called P2-C11; A4
Consider B4, for which, in assay [6], the “OD (ELISA)” value worked out at 0.3 OD. For the same molecule, in the assay with Bovine serum albumin [7], the binding result is recorded as “no binding (tested: supernatant 1:50)”.

B5: Clone 3 rabbit monoclonal IgG (antibody, V domains shown)
VH: QSVEESGGRLVTPGTPLTLTCTASGFSLSRYDMSWVRQAPGKGLEWIGTISGSYNTYYMSWAKGRFTISKTSSTTVDLKMTSLTTEDTATYFCASSGIWGPGTLVTVSL
VL: AQVLTQTASPVSAAVGGTVTINCQSSQRVYSNYLSWYQQKPGQPPRRLIWLASTLESGVPSRFSGSGSGTQFTLTISGVVCDDAATYYCAGTYSGSIWAFGGGTEVVVKG
notes: Rabbit IgG expressed in HEK293F; also called P2-B12; D4
Consider B5, for which the “OD (ELISA)” value in assay [6] was 0.3 OD. The binding result in the assay with Bovine serum albumin [7] is recorded as “no binding (tested: supernatant 1:50)”.

B6: Clone 8 rabbit monoclonal IgG (antibody, V domains shown)
VH: QSLEESGGRLVAPGTPLTLTCTVSGFSLSSYDMSWVRQAPGRGLEWIGTISSSYRTYYASWAKGRFTISKTSSTTVDLKMTSLTTEDTATYFCASSGIWGPGTLVTVSL
VL: AQVLTQTASPVSAAVGGTVTINCQSSQRVYNNYLAWYQQKPGQPPKRLIYLASTLESGVPSRFSGSGSGTQFTLTISGVVCDDAATYYCAGTYSGSIWAFGGGTEVVVKG
notes: Rabbit IgG expressed in HEK293F; also called P2-F3; H2
Turning to B6, the “OD (ELISA)” value in assay [6] was 0.3 OD. For the same molecule, in the assay with Bovine serum albumin [7], the binding result is reported as “no binding (tested: supernatant 1:50)”.

B7: Clone 4 rabbit monoclonal IgG (antibody, V domains shown)
VH: QSVEESGGRLVTPGTPLTLTCTVSGFSLSSYDMSWVRQAPGKGLEWIGTIGRYYNTYYATWAKGRFTISKTSSTTVDLKMTSLTTEDTATYFCASSGIWGPGTLVTVSL
VL: AQVLTQTASPVSAAVGGTVTINCQSSQTVYNNNYLSWYQQKPGQPPKRLIYLASTLESGVPSRFSGSGSGTQFTLTISGVVCDDAATYYCAGTYSGSIWAFGGGTEVVVKG
notes: Rabbit IgG expressed in HEK293F; also called P2-E5; B3
For the molecule B7, the “OD (ELISA)” value in assay [6] is 0.3 OD. In the assay with Bovine serum albumin [7], the binding result is “no binding (tested: supernatant 1:50)”.

B8: Clone 7 rabbit monoclonal IgG (antibody, V domains shown)
VH: QSVEESGGRLVTPGTPLTLTCTVSGFSLSSYDMSWVRQAPGKGLEWIGTIGRYYNTYYATWAKGRFTISKTSSTTVDLKMTSLTTEDTATYFCASSGIWGPGTLVTVSL
VL: AQVLTQTASPVSAAVGGTVTINCQSSQTVYNNNYLSWYQQKPGQPPKRLIYLASTLESGVPSRFSGSGSGTQFTLTISGVVCDDAATYYCAGTYSGSIWAFGGGTEVVVKG
notes: Rabbit IgG expressed in HEK293F; also called P1-D10; D2
In the case of B8, in assay [6], the “OD (ELISA)” value stood at 0.3 OD. The binding result in the assay with Bovine serum albumin [7] is “no binding (tested: supernatant 1:50)”.

B9: Clone 5 rabbit monoclonal IgG (antibody, V domains shown)
VH: QSLEESGGRLVAPGTPLTLTCTVSGFSLSSYDMSWVRQAPGRGLEWIGTISSSYRTYYASWAKGRFTISKTSSTTVDLKMTSLTTEDTATYFCASSGIWGPGTLVTVSL
VL: AQVLTQTASPVSAAVGGTVTINCQSSQRVYNNYLAWYQQKPGQPPKRLIYLASTLESGVPSRFSGSGSGTQFTLTISGVVCDDAATYYCAGTYSGSIWAFGGGTEVVVKG
notes: Rabbit IgG expressed in HEK293F; also called P1-B2; A1
As to B9, the “OD (ELISA)” value in assay [6] is 0.3 OD. For the same molecule, the binding result with Bovine serum albumin [7] is “no binding (tested: supernatant 1:50)”.

The values are drawn from US20220265819A1 (GEN2 NEUROSCIENCE, published 2022).
